Residue numbers refer to the chain shown, from its start.
T1: Human BCMA (human, UniProt Q02223 1-54, limits assumed)
T1 construct: Soluble analyte in SPR; construct not described; also called huBCMA; B-cell maturation antigen
T1 sequence (looked up): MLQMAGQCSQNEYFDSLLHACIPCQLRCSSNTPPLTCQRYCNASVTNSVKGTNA

B1: L3.PY/H2.LT (antibody, V domains shown)
VH: EVQLLESGGGLVQPGGSLRLSCAASGFTFGSYAMTWVRQAPGKGLEWVSAISLTGGNTFYADSVKGRFTISRDNSKNTLYLQMNSLRAEDTAVYYCARVSPIASGMDYWGQGTLVTVSS
VL: EIVLTQSPGTLSLSPGERATLSCRASQSVSSSYLAWYQQKPGQAPRLLIYGASSRATGIPDRFSGSGSGTDFTLTISRLEPEDFAVYYCQHYPYPPSFTFGQGTKVEIK
notes: IgG
B2: L3.PY/H2.YQ (antibody, V domains shown)
VH: B1 VH with L53Y, T54Q
VL: B1 VL
notes: IgG
B3: L3.PY/H2.QL (antibody, V domains shown)
VH: B1 VH with L53G, T54S, S63Q, V64L
VL: B1 VL
notes: IgG
B4: L3.PY/H3.AQ (antibody, V domains shown)
VH: B1 VH with L53G, T54S, S104A, G105Q
VL: B1 VL
notes: IgG
B5: L3.PY/H2.QR (antibody, V domains shown)
VH: B1 VH with L53G, T54S, S63Q, V64R
VL: B1 VL
notes: IgG
B6: L3.PY/H3.TAQ (antibody, V domains shown)
VH: B1 VH with L53G, T54S, A97T, S104A, G105Q
VL: B1 VL
notes: IgG
B7: L3.PY/L1.AH/H2.HA (antibody, V domains shown)
VH: B1 VH with L53H, T54A
VL: B1 VL with S31A, S32H
notes: IgG
B8: L3.PY/H3.YA (antibody, V domains shown)
VH: B1 VH with L53G, T54S, A103Y, S104A
VL: B1 VL
notes: IgG
B9: L3.PY/H3.AE (antibody, V domains shown)
VH: B1 VH with L53G, T54S, S104A, G105E
VL: B1 VL
notes: IgG
B10: L3.PY/L1.AH/H2.DY (antibody, V domains shown)
VH: B1 VH with S52D, L53Y, T54S
VL: B1 VL with S31A, S32H
notes: IgG

Target: T1, Human BCMA
Assay: SPR, IgG immobilised, 37 C
Outline: (§1)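 Binding was run at 37° C or 25° C with species-specific BCMA (human or cyno) flowed over immobilized IgG in a single-cycle series of 0.08, 0.4, 2, 10, 50 nM.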

| Binder | Kd [nM] | T ½ [min] | koff [s⁻¹] | kon [M⁻¹ s⁻¹] |
| --- | --- | --- | --- | --- |
| B1 | 0.54 | 8.95 | 0.00129 | 2.4e+06 |
| B2 | 0.6 | 7.41 | 0.00156 | 2.58e+06 |
| B3 | 0.82 | 5.31 | 0.00218 | 2.64e+06 |
| B4 | 0.56 | 6.69 | 0.00173 | 3.08e+06 |
| B5 | 0.46 | 9.75 | 0.00119 | 2.56e+06 |
| B6 | 0.37 | 10.1 | 0.00114 | 3.08e+06 |
| B7 | 0.54 | 6.37 | 0.00181 | 3.33e+06 |
| B8 | 0.37 | 9.82 | 0.00118 | 3.15e+06 |
| B9 | 0.42 | 8.32 | 0.00139 | 3.29e+06 |
| B10 | 0.5 | 7.62 | 0.00152 | 3.05e+06 |

Target: T2, cynomolgus monkey BCMA (cynomolgus monkey, UniProt A0A2K5UD97 1-53)
T2 construct: Soluble analyte in SPR; construct not described; also called cyBCMA; Cyno BCMA
T2 sequence (A0A2K5UD97 entry or part of it): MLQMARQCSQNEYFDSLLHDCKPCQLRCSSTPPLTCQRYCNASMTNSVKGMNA
Assay: SPR, IgG immobilised, 37 C
Outline: as §1

| Binder | Kd [nM] | T ½ [min] | koff [s⁻¹] | kon [M⁻¹ s⁻¹] |
| --- | --- | --- | --- | --- |
| B1 | 3.63 | 1.53 | 0.00757 | 2.09e+06 |
| B2 | 2.53 | 1.86 | 0.00621 | 2.46e+06 |
| B3 | 6.16 | 0.91 | 0.0126 | 2.05e+06 |
| B4 | 1.94 | 2.14 | 0.00539 | 2.77e+06 |
| B5 | 3.02 | 1.76 | 0.00658 | 2.18e+06 |
| B6 | 1.7 | 2.64 | 0.00437 | 2.57e+06 |
| B7 | 1.7 | 2.63 | 0.00439 | 2.58e+06 |
| B8 | 1.88 | 2.14 | 0.0054 | 2.87e+06 |
| B9 | 1.79 | 2.29 | 0.00504 | 2.82e+06 |
| B10 | 1.95 | 2.56 | 0.00451 | 2.32e+06 |

From patent US20160297884A1 (Pfizer, published 2016)
